Measured values reported in patent US20190085033A1.

What was measured:
[1] = molecular target: CD4 on human CD4+ T cells (human) (UniProt P01730); test: flow cytometry, trimer labelled with two fluorescent probes on human CD4+ T cells, 30 mins
[2] = molecular target: BG505-gp120 9MUTB (7MUT+N135R/Q328M) (HIV-1, strain BG505); test: SPR, monomeric gp120
BG505 SOSIP T332N gp140 = test: SPR; settings: Fab

Substance: BG505 SOSIP T332N gp140 (other; other documents disagree on this pair)
- percentage of cells bound (double-positive population) [1]: 99.1%

Substance: PGT121 (antibody)
- Kd [2]: 1.5 nM

Substance: PGT121 Fab
- Kd (BG505 SOSIP T332N gp140): 26 nM
